Laboratory results taken from publication PMC5109244.
Each block holds one substance with its values, some of them ahead of it.

What was measured:
[1] = biological target: full-length WT DNGR-1 (mouse, long isoform), transmembrane receptor (mouse); assay: reducing SDS-PAGE and Western blot; Phoenix cells expressing full-length DNGR-1 lysed in 1% SDS in 10 mM MES pH 6.1; reducing conditions; anti-DNGR-1 (clone 397) detection
[2] = biological target: full-length WT DNGR-1 (mouse, long isoform), transmembrane receptor (mouse); assay: reducing SDS-PAGE and Western blot; Phoenix cells expressing full-length DNGR-1 lysed in 1% SDS in PBS; reducing conditions; anti-DNGR-1 (clone 397) detection; reduction-sensitive (type-1) dimers run as monomers
[3] = biological target: long mouse DNGR-1 ECD (extracellular domain of the long isoform of mouse DNGR-1, wild type) (mouse); assay: non-reducing SDS-PAGE and Western blot; purified long mouse ECD in PBS or 10 mM MES pH 6.1, Laemmli buffer or 8 M urea, no reducing agent
[4] = biological target: long mouse DNGR-1 ECD (extracellular domain of the long isoform of mouse DNGR-1, wild type) (mouse); assay: non-reducing SDS-PAGE and Western blot; supernatants of 293F cells with FLAG-tagged ECD proteins, Laemmli buffer without reducing agent, HRP-conjugated anti-FLAG detection
[5] = biological target: long mouse DNGR-1 ECD (extracellular domain of the long isoform of mouse DNGR-1, wild type) (mouse); assay: reducing SDS-PAGE and Western blot; purified ECD diluted into buffers of low pH and low ionic strength (10 mM MES pH 6.1; 10 mM Tris; 36 buffers of pH 6.5–8.05 and 15–250 mM ionic strength); 100 mM DTT in Laemmli buffer; reduction-resistant (type-2) dimers
[6] = biological target: Δ6A mutant long mouse DNGR-1 ECD (all residues of block 6, Q95–S104, replaced by alanines) (mouse); assay: non-reducing SDS-PAGE and Western blot; supernatants of 293F cells with FLAG-tagged ECD proteins, Laemmli buffer without reducing agent, HRP-conjugated anti-FLAG detection
[7] = biological target: chimeric DNGR-1:dectin-1 ECD (neck region of long mouse DNGR-1 fused to the CTLD of dectin-1) (mouse); assay: as above
[8] = biological target: Δ4A mutant long mouse DNGR-1 ECD (all residues of block 4, N81–T90, replaced by alanines) (mouse); assay: as above
[9] = biological target: Δ4A mutant long mouse DNGR-1 ECD (all residues of block 4, N81–T90, replaced by alanines) (mouse); assay: reducing SDS-PAGE and Western blot; supernatants with FLAG-tagged ECD proteins, neat or diluted into PBS (neutral conditions); reduced with DTT (100 mM) or β-ME in Laemmli buffer; anti-FLAG detection
[10] = biological target: Δ3A mutant long mouse DNGR-1 ECD (all residues of block 3, L72–L82, replaced by alanines) (mouse); assay: non-reducing SDS-PAGE and Western blot; supernatants of 293F cells with FLAG-tagged ECD proteins, Laemmli buffer without reducing agent, HRP-conjugated anti-FLAG detection
[11] = biological target: Δ4 mutant long mouse DNGR-1 ECD (N81–T90 removed) (mouse); assay: reducing SDS-PAGE and Western blot; supernatants with FLAG-tagged ECD proteins diluted into 10 mM MES pH 6.1; 100 mM DTT in Laemmli buffer; anti-FLAG detection; reduction-resistant (type-2) dimers
[12] = biological target: Δ4 mutant long mouse DNGR-1 ECD (N81–T90 removed) (mouse); assay: reducing SDS-PAGE and Western blot; supernatants with FLAG-tagged ECD proteins, neat or diluted into PBS (neutral conditions); reduced with DTT (100 mM) or β-ME in Laemmli buffer; anti-FLAG detection
[13] = biological target: full-length Δ4 DNGR-1 (mouse, long isoform; N81–T90 removed) (mouse); assay: reducing SDS-PAGE and Western blot; Phoenix cells expressing full-length DNGR-1 lysed in 1% SDS in 10 mM MES pH 6.1; reducing conditions; anti-DNGR-1 (clone 397) detection
[14] = biological target: full-length Δ4 DNGR-1 (mouse, long isoform; N81–T90 removed) (mouse); assay: reducing SDS-PAGE and Western blot; Phoenix cells expressing full-length DNGR-1 lysed in 1% SDS in PBS; reducing conditions; anti-DNGR-1 (clone 397) detection; reduction-sensitive (type-1) dimers run as monomers

long mouse DNGR-1 ECD (extracellular domain of the long isoform of mouse DNGR-1, wild type) (domain or fragment), sequence (Q8BRU4 113-235): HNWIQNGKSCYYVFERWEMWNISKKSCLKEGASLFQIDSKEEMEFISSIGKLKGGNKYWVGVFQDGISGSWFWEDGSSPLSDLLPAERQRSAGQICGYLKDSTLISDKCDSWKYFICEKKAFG
full-length WT DNGR-1 (mouse, long isoform), transmembrane receptor, sequence (Q8BRU4 whole entry, canonical isoform): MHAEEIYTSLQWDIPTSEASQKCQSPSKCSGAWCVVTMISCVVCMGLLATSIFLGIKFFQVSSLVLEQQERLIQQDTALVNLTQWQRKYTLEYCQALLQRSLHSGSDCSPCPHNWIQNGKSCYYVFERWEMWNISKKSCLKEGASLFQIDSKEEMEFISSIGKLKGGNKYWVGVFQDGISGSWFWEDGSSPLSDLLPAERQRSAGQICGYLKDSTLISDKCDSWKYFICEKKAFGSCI

Substance: full-length WT DNGR-1 (mouse, long isoform), transmembrane receptor
stoichiometry N [1]: 2
stoichiometry N [2]: 2

Substance: Δ6A mutant long mouse DNGR-1 ECD (all residues of block 6, Q95–S104, replaced by alanines) (domain or fragment)
stoichiometry N [6]: 2

Substance: Δ3A mutant long mouse DNGR-1 ECD (all residues of block 3, L72–L82, replaced by alanines) (domain or fragment)
stoichiometry N [10]: 2

Substance: Δ4 mutant long mouse DNGR-1 ECD (N81–T90 removed) (domain or fragment)
stoichiometry N [11]: 2
stoichiometry N [12]: 2

Substance: full-length Δ4 DNGR-1 (mouse, long isoform; N81–T90 removed) (receptor)
stoichiometry N [13]: 2
stoichiometry N [14]: 2

The next lines start with the values.

stoichiometry N [3]: 2
stoichiometry N [4]: 2
stoichiometry N [5]: 2
Substance: long mouse DNGR-1 ECD (extracellular domain of the long isoform of mouse DNGR-1, wild type) (domain or fragment)

stoichiometry N [7]: 2
Substance: chimeric DNGR-1:dectin-1 ECD (neck region of long mouse DNGR-1 fused to the CTLD of dectin-1)

stoichiometry N [8]: 2
stoichiometry N [9]: 2
Substance: Δ4A mutant long mouse DNGR-1 ECD (all residues of block 4, N81–T90, replaced by alanines) (domain or fragment)
